The target of series [1] is T1, RAD51 WT (human, UniProt Q06609 1-339). Put plainly: EMSA.
Series [2] deals with T2, RAD51 KR (human, UniProt Q06609 1-339, K133R). Put plainly: EMSA. Background: Mobility shift assays separate free from complexed probe on a gel.
In series [3] the target is T3, RAD51 KA (human, UniProt Q06609 1-339, K133A). Kind of series: EMSA.
Series [4] deals with the molecule itself. Kind of series: negative-stain EM, helical reconstruction.
Series [5] has as its target T1, RAD51 WT. Kind of series: nuclease protection.
The target of series [6] is T3, RAD51 KA. Put plainly: nuclease protection.
For series [7], the target named is T2, RAD51 KR. Kind of series: nuclease protection.
The target in series [8] is T3, RAD51 KA. Kind of series: stopped-flow Cy3 fluorescence.
Series [9] concerns the target T2, RAD51 KR. Kind of series: stopped-flow Cy3 fluorescence.
Another series has as its target RecA (bacterial, UniProt P0A7G6 1-353). Put plainly: stopped-flow Cy3 fluorescence.

Residue numbers refer to the chain shown, from its start. Names may count otherwise.

RecA, sequence (P0A7G6 whole entry): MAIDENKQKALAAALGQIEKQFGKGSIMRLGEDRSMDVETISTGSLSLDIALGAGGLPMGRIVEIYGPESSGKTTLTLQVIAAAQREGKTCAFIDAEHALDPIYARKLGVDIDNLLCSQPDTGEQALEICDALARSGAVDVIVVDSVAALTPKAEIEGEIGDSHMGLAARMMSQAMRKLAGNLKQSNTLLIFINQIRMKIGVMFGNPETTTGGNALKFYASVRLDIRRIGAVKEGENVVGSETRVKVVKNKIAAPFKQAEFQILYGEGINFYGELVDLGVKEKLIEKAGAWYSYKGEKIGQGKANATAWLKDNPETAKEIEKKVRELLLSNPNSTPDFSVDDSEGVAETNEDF

B1: 83-mer (ssDNA)
DNA: AAATGAACATAAAGTAAATAAGTATAAGGATAATACAAAATAAGTAAATGAATAAACATAGAAAATAAAGTAAAGGATATAAA
Consider B1, for which the binding result with RAD51 WT [1], with RAD51 KR [2] and with RAD51 KA [3] was “binds” in each case.

B2: Human RAD51 K133R (natural protein)
chain: MAMQMQLEANADTSVEEESFGPQPISRLEQCGINANDVKKLEEAGFHTVEAVAYAPKKELINIKGISEAKADKILAEAAKLVPMGFTTATEFHQRRSEIIQITTGSKELDKLLQGGIETGSITEMFGEFRTGRTQICHTLAVTCQLPIDRGGGEGKAMYIDTEGTFRPERLLAVAERYGLSGSDVLDNVAYARAFNTDHQTQLLYQASAMMVESRYALLIVDSATALYRTDYSGRGELSARQMHLARFLRMLLRLADEFGVAVVITNQVVAQVDGAAMFAADPKKPIGGNIIAHASTTRLYLRKGRGETRICKIYDSPCLPEAEAMFAINADGVGDAKD
Regarding B2, the binding result in series [4] is “binds”.

B3: Human RAD51 K133A (natural protein)
chain: B2 chain with R133A
With B3, the binding result in series [4] was “binds”.

B4: 61-mer (ssDNA)
DNA: GACGCTGCCGAATTCTACCAGTGCCTTGCTAGGACATCTTTGCCCACCTGCAGGTTCACCC
For B4, the binding result with RAD51 WT [5], in the series with RAD51 KA [6] and with RAD51 KR [7] was “binds” each time.

B5: 5'-Cy3-dT79 (ssDNA)
DNA: TTTTTTTTTTTTTTTTTTTTTTTTTTTTTTTTTTTTTTTTTTTTTTTTTTTTTTTTTTTTTTTTTTTTTTTTTTTTTTT
As a reminder, the Kd is the equilibrium constant for the complex coming apart. A high value points to weaker binding. As for B5, the binding result in the series with RAD51 KA [8] and with RAD51 KR [9] was “binds” throughout. The Kd with RecA is < 1100 nM.

The record behind these values is PMC5934667 (Nucleic Acids Research, 2018).
